One molecule from patent US20160091498A1 (H LEE MOFFITT CANCER CENTER AND RESEARCH INSTITUTE, published 2016) can be followed below.

Primed or numbered codes have the meaning given here. No end group written: not given here. Biotin′ = not defined here

The assay has as its target T1, NPAT (UniProt Q14207 1-1427).
T1 construct: other lysate proteins were present
T1 sequence (looked up): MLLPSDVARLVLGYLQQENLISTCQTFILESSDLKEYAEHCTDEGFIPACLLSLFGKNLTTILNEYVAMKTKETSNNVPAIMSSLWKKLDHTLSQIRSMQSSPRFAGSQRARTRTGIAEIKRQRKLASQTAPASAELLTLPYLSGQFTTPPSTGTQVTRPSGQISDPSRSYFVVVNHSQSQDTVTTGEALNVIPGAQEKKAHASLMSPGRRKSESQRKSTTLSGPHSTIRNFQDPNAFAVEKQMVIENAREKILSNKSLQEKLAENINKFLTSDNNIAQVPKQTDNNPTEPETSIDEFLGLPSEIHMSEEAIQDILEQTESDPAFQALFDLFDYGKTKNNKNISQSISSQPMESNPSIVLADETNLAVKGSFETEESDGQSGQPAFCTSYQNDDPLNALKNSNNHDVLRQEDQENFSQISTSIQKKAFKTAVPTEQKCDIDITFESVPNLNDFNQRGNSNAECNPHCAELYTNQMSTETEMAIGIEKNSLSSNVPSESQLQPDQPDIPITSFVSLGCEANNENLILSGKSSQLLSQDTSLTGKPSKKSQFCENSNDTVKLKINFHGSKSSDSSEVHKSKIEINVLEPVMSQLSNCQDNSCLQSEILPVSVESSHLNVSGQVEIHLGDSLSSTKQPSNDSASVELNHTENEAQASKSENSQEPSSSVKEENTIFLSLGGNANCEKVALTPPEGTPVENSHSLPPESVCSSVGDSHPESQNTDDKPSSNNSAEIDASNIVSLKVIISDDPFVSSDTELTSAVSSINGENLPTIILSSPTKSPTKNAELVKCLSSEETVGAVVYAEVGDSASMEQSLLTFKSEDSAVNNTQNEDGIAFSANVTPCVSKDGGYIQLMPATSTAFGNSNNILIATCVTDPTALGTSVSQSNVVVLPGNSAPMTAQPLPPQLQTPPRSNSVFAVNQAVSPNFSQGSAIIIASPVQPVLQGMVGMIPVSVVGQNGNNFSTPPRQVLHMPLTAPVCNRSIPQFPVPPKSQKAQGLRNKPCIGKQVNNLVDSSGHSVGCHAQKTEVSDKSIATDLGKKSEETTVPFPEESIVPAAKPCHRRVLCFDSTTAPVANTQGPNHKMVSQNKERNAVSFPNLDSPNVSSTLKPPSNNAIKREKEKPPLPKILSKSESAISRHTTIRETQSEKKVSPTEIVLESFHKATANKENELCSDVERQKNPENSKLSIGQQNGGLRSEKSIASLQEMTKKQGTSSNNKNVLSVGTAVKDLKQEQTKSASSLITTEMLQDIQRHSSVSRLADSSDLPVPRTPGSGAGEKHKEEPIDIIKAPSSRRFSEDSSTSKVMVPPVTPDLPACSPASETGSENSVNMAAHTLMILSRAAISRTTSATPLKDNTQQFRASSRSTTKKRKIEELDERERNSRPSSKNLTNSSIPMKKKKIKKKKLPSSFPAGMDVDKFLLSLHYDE
The assay can be described thus: filter binding: peptide on nitrocellulose, HEK293 lysate, NPAT immunoblot. In general terms: A western blot detects proteins with antibodies after separation by electrophoresis.

B1: H2B(25-49) (peptide)
peptide: DGKKRKRSRKESYSVYVYKVLKQVH-{Biotin′}
notes: also called unphosphorylated H2B; human histone H2B peptide spanning amino acids 25-49
On to B1, for which the binding result is given as “binds”.
